Experimental findings from patent publication US20140087995A1 (published 2014) are described below.

T1: human calcitonin receptor (human, UniProt P30988 25-474)
T1 construct: whole, on cells; Assayed as cell membranes of BHK tk'ts 13 cells stably transfected with the human calcitonin receptor (Assay VII); also called hCTR; hCT
T1 sequence (looked up): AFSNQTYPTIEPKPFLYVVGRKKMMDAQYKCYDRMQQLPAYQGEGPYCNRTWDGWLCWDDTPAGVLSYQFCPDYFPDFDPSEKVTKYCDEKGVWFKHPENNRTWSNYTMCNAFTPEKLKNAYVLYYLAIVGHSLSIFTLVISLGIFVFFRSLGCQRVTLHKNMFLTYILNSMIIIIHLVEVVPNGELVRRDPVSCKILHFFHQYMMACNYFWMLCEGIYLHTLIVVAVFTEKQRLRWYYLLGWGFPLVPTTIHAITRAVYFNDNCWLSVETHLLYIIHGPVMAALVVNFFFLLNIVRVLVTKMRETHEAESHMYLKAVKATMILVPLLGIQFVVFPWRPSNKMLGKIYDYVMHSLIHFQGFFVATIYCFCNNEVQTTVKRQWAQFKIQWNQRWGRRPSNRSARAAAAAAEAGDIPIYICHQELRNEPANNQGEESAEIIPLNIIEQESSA

B1: N^ε1-[(4S)-4-carboxy-4-(19-carboxynonadecanoylamino)butanoyl]-[His14,Arg17,Pro21,Pro27]-h-amylin (peptide)
peptide: K([γGlu-C20 diacid])CNTATCATQRLAHFLRHSSPNFGAIPSSTNVGSNTY-NH2
modifications: disulfide 2-7; N-terminus assumed
SMILES: CC[C@H](C)[C@H](NC(=O)[C@H](C)NC(=O)CNC(=O)[C@H](Cc1ccccc1)NC(=O)[C@H](CC(N)=O)NC(=O)[C@@H]1CCCN1C(=O)[C@H](CO)NC(=O)[C@H](CO)NC(=O)[C@H](Cc1c[nH]cn1)NC(=O)[C@H](CCCNC(=N)N)NC(=O)[C@H](CC(C)C)NC(=O)[C@H](Cc1ccccc1)NC(=O)[C@H](Cc1c[nH]cn1)NC(=O)[C@H](C)NC(=O)[C@H](CC(C)C)NC(=O)[C@H](CCCNC(=N)N)NC(=O)[C@H](CCC(N)=O)NC(=O)[C@@H](NC(=O)[C@H](C)NC(=O)[C@@H]1CSSC[C@H](NC(=O)[C@@H](N)CCCCNC(=O)CC[C@H](NC(=O)CCCCCCCCCCCCCCCCCCC(=O)O)C(=O)O)C(=O)N[C@@H](CC(N)=O)C(=O)N[C@@H]([C@@H](C)O)C(=O)N[C@@H](C)C(=O)N[C@@H]([C@@H](C)O)C(=O)N1)[C@@H](C)O)C(=O)N1CCC[C@H]1C(=O)N[C@@H](CO)C(=O)N[C@@H](CO)C(=O)N[C@H](C(=O)N[C@@H](CC(N)=O)C(=O)N[C@H](C(=O)NCC(=O)N[C@@H](CO)C(=O)N[C@@H](CC(N)=O)C(=O)N[C@H](C(=O)N[C@@H](Cc1ccc(O)cc1)C(N)=O)[C@@H](C)O)C(C)C)[C@@H](C)O
notes: also called compound 70
B2: N^ε1-[(4S)-4-carboxy-4-[[(4S)-4-carboxy-4-(19-carboxynonadecanoylamino)butanoyl]amino]butanoyl]-[Arg17,Pro21,Pro27,His34]-h-amylin (peptide)
peptide: K([γGlu-γGlu-C20 diacid])CNTATCATQRLANFLRHSSPNFGAIPSSTNVGHNTY-NH2
modifications: disulfide 2-7; N-terminus assumed
SMILES: CC[C@H](C)[C@H](NC(=O)[C@H](C)NC(=O)CNC(=O)[C@H](Cc1ccccc1)NC(=O)[C@H](CC(N)=O)NC(=O)[C@@H]1CCCN1C(=O)[C@H](CO)NC(=O)[C@H](CO)NC(=O)[C@H](Cc1c[nH]cn1)NC(=O)[C@H](CCCNC(=N)N)NC(=O)[C@H](CC(C)C)NC(=O)[C@H](Cc1ccccc1)NC(=O)[C@H](CC(N)=O)NC(=O)[C@H](C)NC(=O)[C@H](CC(C)C)NC(=O)[C@H](CCCNC(=N)N)NC(=O)[C@H](CCC(N)=O)NC(=O)[C@@H](NC(=O)[C@H](C)NC(=O)[C@@H]1CSSC[C@H](NC(=O)[C@@H](N)CCCCNC(=O)CC[C@H](NC(=O)CC[C@H](NC(=O)CCCCCCCCCCCCCCCCCCC(=O)O)C(=O)O)C(=O)O)C(=O)N[C@@H](CC(N)=O)C(=O)N[C@@H]([C@@H](C)O)C(=O)N[C@@H](C)C(=O)N[C@@H]([C@@H](C)O)C(=O)N1)[C@@H](C)O)C(=O)N1CCC[C@H]1C(=O)N[C@@H](CO)C(=O)N[C@@H](CO)C(=O)N[C@H](C(=O)N[C@@H](CC(N)=O)C(=O)N[C@H](C(=O)NCC(=O)N[C@@H](Cc1c[nH]cn1)C(=O)N[C@@H](CC(N)=O)C(=O)N[C@H](C(=O)N[C@@H](Cc1ccc(O)cc1)C(N)=O)[C@@H](C)O)C(C)C)[C@@H](C)O
notes: also called compound 86
B3: N^ε21-[(4S)-4-carboxy-4-[[(4S)-4-carboxy-4-(19-carboxynonadecanoylamino)butanoyl]amino]butanoyl]-[Asp14,Arg17,Lys21,Pro27,Asp35]-h-amylin (peptide)
peptide: KCNTATCATQRLADFLRHSSK([γGlu-γGlu-C20 diacid])NFGAIPSSTNVGSDTY-NH2
modifications: disulfide 2-7; N-terminus assumed
SMILES: CC[C@H](C)[C@H](NC(=O)[C@H](C)NC(=O)CNC(=O)[C@H](Cc1ccccc1)NC(=O)[C@H](CC(N)=O)NC(=O)[C@H](CCCCNC(=O)CC[C@H](NC(=O)CC[C@H](NC(=O)CCCCCCCCCCCCCCCCCCC(=O)O)C(=O)O)C(=O)O)NC(=O)[C@H](CO)NC(=O)[C@H](CO)NC(=O)[C@H](Cc1c[nH]cn1)NC(=O)[C@H](CCCNC(=N)N)NC(=O)[C@H](CC(C)C)NC(=O)[C@H](Cc1ccccc1)NC(=O)[C@H](CC(=O)O)NC(=O)[C@H](C)NC(=O)[C@H](CC(C)C)NC(=O)[C@H](CCCNC(=N)N)NC(=O)[C@H](CCC(N)=O)NC(=O)[C@@H](NC(=O)[C@H](C)NC(=O)[C@@H]1CSSC[C@H](NC(=O)[C@@H](N)CCCCN)C(=O)N[C@@H](CC(N)=O)C(=O)N[C@@H]([C@@H](C)O)C(=O)N[C@@H](C)C(=O)N[C@@H]([C@@H](C)O)C(=O)N1)[C@@H](C)O)C(=O)N1CCC[C@H]1C(=O)N[C@@H](CO)C(=O)N[C@@H](CO)C(=O)N[C@H](C(=O)N[C@@H](CC(N)=O)C(=O)N[C@H](C(=O)NCC(=O)N[C@@H](CO)C(=O)N[C@@H](CC(=O)O)C(=O)N[C@H](C(=O)N[C@@H](Cc1ccc(O)cc1)C(N)=O)[C@@H](C)O)C(C)C)[C@@H](C)O
notes: also called compound 59
B4: N^ε1-[(4S)-4-carboxy-4-[[(4S)-4-carboxy-4-(19-carboxynonadecanoylamino)butanoyl]amino]butanoyl]-[Glu14,Arg17,Pro21,Pro27,His34]-h-amylin (peptide)
peptide: K([γGlu-γGlu-C20 diacid])CNTATCATQRLAEFLRHSSPNFGAIPSSTNVGHNTY-NH2
modifications: disulfide 2-7; N-terminus assumed
SMILES: CC[C@H](C)[C@H](NC(=O)[C@H](C)NC(=O)CNC(=O)[C@H](Cc1ccccc1)NC(=O)[C@H](CC(N)=O)NC(=O)[C@@H]1CCCN1C(=O)[C@H](CO)NC(=O)[C@H](CO)NC(=O)[C@H](Cc1c[nH]cn1)NC(=O)[C@H](CCCNC(=N)N)NC(=O)[C@H](CC(C)C)NC(=O)[C@H](Cc1ccccc1)NC(=O)[C@H](CCC(=O)O)NC(=O)[C@H](C)NC(=O)[C@H](CC(C)C)NC(=O)[C@H](CCCNC(=N)N)NC(=O)[C@H](CCC(N)=O)NC(=O)[C@@H](NC(=O)[C@H](C)NC(=O)[C@@H]1CSSC[C@H](NC(=O)[C@@H](N)CCCCNC(=O)CC[C@H](NC(=O)CC[C@H](NC(=O)CCCCCCCCCCCCCCCCCCC(=O)O)C(=O)O)C(=O)O)C(=O)N[C@@H](CC(N)=O)C(=O)N[C@@H]([C@@H](C)O)C(=O)N[C@@H](C)C(=O)N[C@@H]([C@@H](C)O)C(=O)N1)[C@@H](C)O)C(=O)N1CCC[C@H]1C(=O)N[C@@H](CO)C(=O)N[C@@H](CO)C(=O)N[C@H](C(=O)N[C@@H](CC(N)=O)C(=O)N[C@H](C(=O)NCC(=O)N[C@@H](Cc1c[nH]cn1)C(=O)N[C@@H](CC(N)=O)C(=O)N[C@H](C(=O)N[C@@H](Cc1ccc(O)cc1)C(N)=O)[C@@H](C)O)C(C)C)[C@@H](C)O
notes: also called compound 87
B5: N^ε1-[(4S)-4-carboxy-4-[[(4S)-4-carboxy-4-(19-carboxynonadecanoylamino)butanoyl]amino]butanoyl]-[Glu14,Arg17,Pro21,Pro27,Arg34]-h-amylin (peptide)
peptide: K([γGlu-γGlu-C20 diacid])CNTATCATQRLAEFLRHSSPNFGAIPSSTNVGRNTY-NH2
modifications: disulfide 2-7; N-terminus assumed
SMILES: CC[C@H](C)[C@H](NC(=O)[C@H](C)NC(=O)CNC(=O)[C@H](Cc1ccccc1)NC(=O)[C@H](CC(N)=O)NC(=O)[C@@H]1CCCN1C(=O)[C@H](CO)NC(=O)[C@H](CO)NC(=O)[C@H](Cc1c[nH]cn1)NC(=O)[C@H](CCCNC(=N)N)NC(=O)[C@H](CC(C)C)NC(=O)[C@H](Cc1ccccc1)NC(=O)[C@H](CCC(=O)O)NC(=O)[C@H](C)NC(=O)[C@H](CC(C)C)NC(=O)[C@H](CCCNC(=N)N)NC(=O)[C@H](CCC(N)=O)NC(=O)[C@@H](NC(=O)[C@H](C)NC(=O)[C@@H]1CSSC[C@H](NC(=O)[C@@H](N)CCCCNC(=O)CC[C@H](NC(=O)CC[C@H](NC(=O)CCCCCCCCCCCCCCCCCCC(=O)O)C(=O)O)C(=O)O)C(=O)N[C@@H](CC(N)=O)C(=O)N[C@@H]([C@@H](C)O)C(=O)N[C@@H](C)C(=O)N[C@@H]([C@@H](C)O)C(=O)N1)[C@@H](C)O)C(=O)N1CCC[C@H]1C(=O)N[C@@H](CO)C(=O)N[C@@H](CO)C(=O)N[C@H](C(=O)N[C@@H](CC(N)=O)C(=O)N[C@H](C(=O)NCC(=O)N[C@@H](CCCNC(=N)N)C(=O)N[C@@H](CC(N)=O)C(=O)N[C@H](C(=O)N[C@@H](Cc1ccc(O)cc1)C(N)=O)[C@@H](C)O)C(C)C)[C@@H](C)O
notes: also called compound 88
B6: N^ε1-[(4S)-4-carboxy-4-[[(4S)-4-carboxy-4-(19-carboxynonadecanoylamino)butanoyl]amino]butanoyl]-[Glu14,Arg17,Pro21,Pro27,Arg35]-h-amylin (peptide)
peptide: K([γGlu-γGlu-C20 diacid])CNTATCATQRLAEFLRHSSPNFGAIPSSTNVGSRTY-NH2
modifications: disulfide 2-7; N-terminus assumed
SMILES: CC[C@H](C)[C@H](NC(=O)[C@H](C)NC(=O)CNC(=O)[C@H](Cc1ccccc1)NC(=O)[C@H](CC(N)=O)NC(=O)[C@@H]1CCCN1C(=O)[C@H](CO)NC(=O)[C@H](CO)NC(=O)[C@H](Cc1c[nH]cn1)NC(=O)[C@H](CCCNC(=N)N)NC(=O)[C@H](CC(C)C)NC(=O)[C@H](Cc1ccccc1)NC(=O)[C@H](CCC(=O)O)NC(=O)[C@H](C)NC(=O)[C@H](CC(C)C)NC(=O)[C@H](CCCNC(=N)N)NC(=O)[C@H](CCC(N)=O)NC(=O)[C@@H](NC(=O)[C@H](C)NC(=O)[C@@H]1CSSC[C@H](NC(=O)[C@@H](N)CCCCNC(=O)CC[C@H](NC(=O)CC[C@H](NC(=O)CCCCCCCCCCCCCCCCCCC(=O)O)C(=O)O)C(=O)O)C(=O)N[C@@H](CC(N)=O)C(=O)N[C@@H]([C@@H](C)O)C(=O)N[C@@H](C)C(=O)N[C@@H]([C@@H](C)O)C(=O)N1)[C@@H](C)O)C(=O)N1CCC[C@H]1C(=O)N[C@@H](CO)C(=O)N[C@@H](CO)C(=O)N[C@H](C(=O)N[C@@H](CC(N)=O)C(=O)N[C@H](C(=O)NCC(=O)N[C@@H](CO)C(=O)N[C@@H](CCCNC(=N)N)C(=O)N[C@H](C(=O)N[C@@H](Cc1ccc(O)cc1)C(N)=O)[C@@H](C)O)C(C)C)[C@@H](C)O
notes: also called compound 89

Numbered stars: 1 amine (or outer) side, 2 acyl side, 3 side chain; on linkers, the order of the positions; unused ones are H or OH. Bridge positions count the residues as written; N and C are the ends. Side chains are listed from the residue outwards. Ends that are not written are not given here. * marks the point of attachment. C20 diacid = O=C(O)CCCCCCCCCCCCCCCCCCC(=O)*; γGlu = O=C(O)[C@H](CCC(=O)[*:2])N[*:1]

One assay has as its target T1, human calcitonin receptor. As to the kind of experiment: IC50 at hCTR divided by IC50 at hAmylin-R (SPA competition assays V and VII). The method, boiled down: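 IC₅₀ values were derived by one-site competition analysis of SPA counts. Cell membranes (35 ng/μL) with SPA beads were incubated with test compounds for 120 min at 25° C in Hepes buffer, pH 7.4, containing CaCl2, MgCl₂, OA and Tween20.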
With B1, the “Ratio hCT/hAmylin binding” value worked out at 60.8.

Regarding B2, the “Ratio hCT/hAmylin binding” value was 159.

Turning to B3, the “Ratio hCT/hAmylin binding” value was 4.3.

As for B4, the “Ratio hCT/hAmylin binding” value worked out at 35.6.

With B5, the “Ratio hCT/hAmylin binding” value amounted to 46.5.

Regarding B6, the “Ratio hCT/hAmylin binding” value worked out at 28.

A further assay has as its target T1, human calcitonin receptor. Briefly: SPA competition vs 125I-calcitonin, membranes of BHK cells with human calcitonin receptor (Assay VII). The essentials: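 BHK hCTR membranes 35 ng/μL + SPA beads 0.05 mg/well; buffer 50 mM Hepes pH 7.4, 1 mM CaCl2, 5 mM MgCl₂, 0.1% OA, 0.02% Tween20. 120 min, 25° C., shaking. Scintillation count; IC50 by one-site binding competition.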
One may read the IC50 as the concentration that inhibits the measured activity by half. On to B1, for which the IC50 was found to be 10.3 nM.

As to B2, the half-maximal inhibitory concentration (IC50) came to 133 nM.

As to B3, the IC50 was found to be 5.14 nM.

For B4, the IC50 is 22.5 nM.

For the molecule B5, the IC50 stood at 34.9 nM.

For the molecule B6, the IC50 turned out to be 32.5 nM.
